This note sets out measurements from article PMC2614274.

The target of the series is T1, DNA polymerase III alpha subunit (PolIIIα), exonuclease-deficient (Thermus aquaticus, UniProt Q9XDH5 1-1220, D20N;D212N).
T1 sequence: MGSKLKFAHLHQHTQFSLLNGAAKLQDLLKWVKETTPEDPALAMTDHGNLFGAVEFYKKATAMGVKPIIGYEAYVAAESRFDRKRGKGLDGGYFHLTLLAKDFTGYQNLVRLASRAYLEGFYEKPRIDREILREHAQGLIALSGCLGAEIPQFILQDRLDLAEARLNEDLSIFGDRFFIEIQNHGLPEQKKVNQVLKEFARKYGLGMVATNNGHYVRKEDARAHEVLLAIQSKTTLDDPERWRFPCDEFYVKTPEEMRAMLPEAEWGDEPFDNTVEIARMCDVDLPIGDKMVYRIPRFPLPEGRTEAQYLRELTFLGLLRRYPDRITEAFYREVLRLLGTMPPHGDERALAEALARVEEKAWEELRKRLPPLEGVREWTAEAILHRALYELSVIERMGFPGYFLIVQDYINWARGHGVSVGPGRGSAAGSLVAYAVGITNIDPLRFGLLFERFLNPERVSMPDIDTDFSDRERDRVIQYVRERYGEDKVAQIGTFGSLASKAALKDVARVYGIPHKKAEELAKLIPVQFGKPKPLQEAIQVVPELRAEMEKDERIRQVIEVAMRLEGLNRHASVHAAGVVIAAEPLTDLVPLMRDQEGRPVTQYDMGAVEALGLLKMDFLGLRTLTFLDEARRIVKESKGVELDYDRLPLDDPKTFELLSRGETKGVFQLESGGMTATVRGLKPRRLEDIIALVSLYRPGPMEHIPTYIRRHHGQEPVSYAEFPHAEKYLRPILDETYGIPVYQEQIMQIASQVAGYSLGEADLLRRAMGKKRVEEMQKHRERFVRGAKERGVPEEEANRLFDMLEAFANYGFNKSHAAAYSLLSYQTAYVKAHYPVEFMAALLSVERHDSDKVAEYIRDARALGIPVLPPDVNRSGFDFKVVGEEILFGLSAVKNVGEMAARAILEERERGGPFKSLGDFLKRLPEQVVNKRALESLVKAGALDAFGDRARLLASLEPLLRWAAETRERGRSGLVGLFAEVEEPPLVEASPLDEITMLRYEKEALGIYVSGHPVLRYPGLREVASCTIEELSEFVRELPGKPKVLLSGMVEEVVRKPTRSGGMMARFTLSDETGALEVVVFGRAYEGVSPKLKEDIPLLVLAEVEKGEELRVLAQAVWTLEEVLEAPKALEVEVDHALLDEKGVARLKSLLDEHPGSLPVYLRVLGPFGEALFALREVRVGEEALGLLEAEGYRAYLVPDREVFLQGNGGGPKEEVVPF
As to the kind of experiment: X-ray crystallography.

B1: primer-template DNA, ddC-terminated primer (dsDNA)
DNA 1: CGAAACGACGGCCAGTGCCAC
DNA 2: TTTTTTGTGGCACTGGCCGTCGTTTCG
modifications: 2',3'-dideoxycytidine at primer 3' end (incorporated in situ by the polymerase)
For B1, the binding result is given as “binds”.
